Results reported in US11026999B2, “Insulin glargine/lixisenatide fixed ratio formulation” (SANOFI-AVENTIS DEUTSCHLAND GMBH, priority 2013, dated 2021).

System: type 2 diabetic patients
Assay: Treatment-emergent adverse events, SAEs, deaths, TEAEs leading to withdrawal (Example 1)
Details: Safety population
Method: Safety: The safety analysis was conducted on the safety population, defined as all randomized patients who received at least one dose of IMP (regardless of the amount of treatment administered). The evaluation of AEs, laboratory, vital sign, and ECG data was descriptive.

Gly(A21)-Arg(B31)-Arg(B32)-human insulin [Insulin Glargine]
TEAE leading to permanent treatment discontinuation: Confusional state (PT): 0 n (%) | TEAE leading to permanent treatment discontinuation: Dizziness (PT): 0 n (%) | TEAE leading to permanent treatment discontinuation: Headache (PT): 0 n (%) | TEAE leading to permanent treatment discontinuation: Nausea (PT): 0 n (%) | TEAE leading to permanent treatment discontinuation: Ovarian cancer (PT): 0 n (%) | TEAE leading to permanent treatment discontinuation: Vomiting (PT): 0 n (%) | TEAE: Abdominal distension (PT): 2 (1.2%) n (%) | TEAE: Arthralgia (PT): 3 (1.9%) n (%) | TEAE: Asthenia (PT): 0 n (%) | TEAE: Atrial fibrillation (PT): 1 (0.6%) n (%) | TEAE: Back pain (PT): 2 (1.2%) n (%) | TEAE: Bronchitis (PT): 1 (0.6%) n (%) | TEAE: Conjunctivitis (PT): 2 (1.2%) n (%) | TEAE: Constipation (PT): 0 n (%) | TEAE: Contusion (PT): 2 (1.2%) n (%) | TEAE: Cough (PT): 0 n (%) | TEAE: Cystitis (PT): 2 (1.2%) n (%) | TEAE: Decreased appetite (PT): 0 n (%) | TEAE: Depression (PT): 2 (1.2%) n (%) | TEAE: Diabetic neuropathy (PT): 2 (1.2%) n (%) | TEAE: Diarrhoea (PT): 6 (3.7%) n (%) | TEAE: Dizziness (PT): 1 (0.6%) n (%) | TEAE: Dyspepsia (PT): 1 (0.6%) n (%) | TEAE: Fatigue (PT): 0 n (%) | TEAE: Gastroenteritis (PT): 1 (0.6%) n (%) | TEAE: Headache (PT): 12 (7.4%) n (%) | TEAE: Hypertension (PT): 2 (1.2%) n (%) | TEAE: Hypertriglyceridaemia (PT): 0 n (%) | TEAE: Influenza (PT): 6 (3.7%) n (%) | TEAE: Injection site pruritus (PT): 0 n (%) | TEAE: Insomnia (PT): 0 n (%) | TEAE: Intervertebral disc disorder (PT): 2 (1.2%) n (%) | TEAE: Laceration (PT): 3 (1.9%) n (%) | TEAE: Lipase increased (PT): 1 (0.6%) n (%) | TEAE: Musculoskeletal pain (PT): 1 (0.6%) n (%) | TEAE: Nasopharyngitis (PT): 9 (5.6%) n (%) | TEAE: Nausea (PT): 0 n (%) | TEAE: Nepbrolithiasis (PT): 2 (1.2%) n (%) | TEAE: Oedema (PT): 2 (1.2%) n (%) | TEAE: Osteoarthritis (PT): 2 (1.2%) n (%) | TEAE: Pain in extremity (PT): 0 n (%) | TEAE: Presyncope (PT): 2 (1.2%) n (%) | TEAE: Rhinitis (PT): 2 (1.2%) n (%) | TEAE: Sciatica (PT): 2 (1.2%) n (%) | TEAE: Sinusitis (PT): 3 (1.9%) n (%) | TEAE: Tinnitus (PT): 2 (1.2%) n (%) | TEAE: Tooth abscess (PT): 2 (1.2%) n (%) | TEAE: Vomiting (PT): 1 (0.6%) n (%) | Treatment emergent SAE: Angina pectoris (PT): 0 n (%) | Treatment emergent SAE: Angina unstable (PT): 0 n (%) | Treatment emergent SAE: Atrial fibrillation (PT): 1 (0.6%) n (%) | Treatment emergent SAE: Bradycardia (PT): 0 n (%) | Treatment emergent SAE: Calculus ureteric (PT): 0 n (%) | Treatment emergent SAE: Cellulitis (PT): 0 n (%) | Treatment emergent SAE: Depression (PT): 1 (0.6%) n (%) | Treatment emergent SAE: Diabetic neuropathy (PT): 0 n (%) | Treatment emergent SAE: ECG signs of myocardial ischaemia (PT): 1 (0.6%) n (%) | Treatment emergent SAE: Intervertebral disc protrusion (PT): 0 n (%) | Treatment emergent SAE: Osteoarthritis (PT): 1 (0.6%) n (%) | Treatment emergent SAE: Ovarian cancer (PT): 0 n (%) | Treatment emergent SAE: Pain in extremity (PT): 0 n (%) | Treatment emergent SAE: Presyncope (PT): 1 (0.6%) n (%) | Treatment emergent SAE: Radius fracture (PT): 0 n (%) | Treatment emergent SAE: Sciatica (PT): 0 n (%) | TEAE leading to permanent treatment discontinuation: Hypersensitivity (PT, adjudicated as not allergic event by ARAC): 0 n (%) | TEAE leading to permanent treatment discontinuation: Gastrointestinal disorders (SOC): 0 n (%) | TEAE leading to permanent treatment discontinuation: Immune system disorders (SOC): 0 n (%) | TEAE leading to permanent treatment discontinuation: Neoplasms benign, malignant and unspecified (incl cysts and polyps) (SOC): 0 n (%) | TEAE leading to permanent treatment discontinuation: Nervous system disorders (SOC): 0 n (%) | TEAE leading to permanent treatment discontinuation: Psychiatric disorders (SOC): 0 n (%) | TEAE: Cardiac disorders (SOC): 1 (0.6%) n (%) | TEAE: Ear and labyrinth disorders (SOC): 2 (1.2%) n (%) | TEAE: Eye disorders (SOC): 7 (4.3%) n (%) | TEAE: Gastrointestinal disorders (SOC): 15 (9.3%) n (%) | TEAE: General disorders and administration site conditions (SOC): 5 (3.1%) n (%) | TEAE: Injury, poisoning and procedural complications (SOC): 11 (6.8%) n (%) | TEAE: Investigations (SOC): 5 (3.1%) n (%) | TEAE: Metabolism and nutrition disorders (SOC): 1 (0.6%) n (%) | TEAE: Musculoskeletal and connective tissue disorders (SOC): 13 (8.0%) n (%) | TEAE: Nervous system disorders (SOC): 20 (12.3%) n (%) | TEAE: Psychiatric disorders (SOC): 2 (1.2%) n (%) | TEAE: Renal and urinary disorders (SOC): 2 (1.2%) n (%) | TEAE: Respiratory, thoracic and mediastinal disorders (SOC): 4 (2.5%) n (%) | TEAE: Vascular disorders (SOC): 3 (1.9%) n (%) | Treatment emergent SAE: Cardiac disorders (SOC): 1 (0.6%) n (%) | Treatment emergent SAE: Injury, poisoning and procedural complications (SOC): 0 n (%) | Treatment emergent SAE: Investigations (SOC): 1 (0.6%) n (%) | Treatment emergent SAE: Musculoskeletal and connective tissue disorders (SOC): 1 (0.6%) n (%) | Treatment emergent SAE: Neoplasms benign, malignant and unspecified (incl cysts and polyps) (SOC): 0 n (%) | Treatment emergent SAE: Nervous system disorders (SOC): 1 (0.6%) n (%) | Treatment emergent SAE: Psychiatric disorders (SOC): 1 (0.6%) n (%) | Treatment emergent SAE: Renal and urinary disorders (SOC): 0 n (%) | Patients with any TEAE: 82 (50.6%) n (%) | Patients with any TEAE leading to death: 0 n (%) | Patients with any TEAE leading to permanent treatment discontinuation: 0 n (%) | Patients with any treatment emergent SAE: 6 (3.7%) n (%) | TEAE leading to permanent treatment discontinuation: HLGT: Allergic conditions: 0 n (%) | TEAE leading to permanent treatment discontinuation: HLGT: Deliria (incl confusion): 0 n (%) | TEAE leading to permanent treatment discontinuation: HLGT: Gastrointestinal signs and symptoms: 0 n (%) | TEAE leading to permanent treatment discontinuation: HLGT: Headaches: 0 n (%) | TEAE leading to permanent treatment discontinuation: HLGT: Neurological disorders NEC: 0 n (%) | TEAE leading to permanent treatment discontinuation: HLGT: Reproductive neoplasms female malignant and unspecified: 0 n (%) | TEAE leading to permanent treatment discontinuation: HLT: Allergic conditions NEC: 0 n (%) | TEAE leading to permanent treatment discontinuation: HLT: Confusion and disorientation: 0 n (%) | TEAE leading to permanent treatment discontinuation: HLT: Headaches NEC: 0 n (%) | TEAE leading to permanent treatment discontinuation: HLT: Nausea and vomiting symptoms: 0 n (%) | TEAE leading to permanent treatment discontinuation: HLT: Neurological signs and symptoms NEC: 0 n (%) | TEAE leading to permanent treatment discontinuation: HLT: Ovarian neoplasms malignant (excl germ cell): 0 n (%) | TEAE: HLGT: Administration site reactions: 1 (0.6%) n (%) | TEAE: HLGT: Appetite and general nutritional disorders: 1 (0.6%) n (%) | TEAE: HLGT: Cardiac arrhythmias: 1 (0.6%) n (%) | TEAE: HLGT: Depressed mood disorders and disturbances: 2 (1.2%) n (%) | TEAE: HLGT: Gastrointestinal investigations: 2 (1.2%) n (%) | TEAE: HLGT: Gastrointestinal motility and defaecation conditions: 7 (4.3%) n (%) | TEAE: HLGT: Gastrointestinal signs and symptoms: 7 (4.3%) n (%) | TEAE: HLGT: General system disorders NEC: 4 (2.5%) n (%) | TEAE: HLGT: Headaches: 13 (8.0%) n (%) | TEAE: HLGT: Injuries NEC: 9 (5.6%) n (%) | TEAE: HLGT: Inner ear and VIIIth cranial nerve disorders: 2 (1.2%) n (%) | TEAE: HLGT: Joint disorders: 6 (3.7%) n (%) | TEAE: HLGT: Lipid metabolism disorders: 0 n (%) | TEAE: HLGT: Musculoskeletal and connective tissue deformities (incl intervertebral disc disorders): 2 (1.2%) n (%) | TEAE: HLGT: Musculoskeletal and connective tissue disorders NEC: 3 (1.9%) n (%) | TEAE: HLGT: Neurological disorders NEC: 5 (3.1%) n (%) | TEAE: HLGT: Peripheral neuropathies: 2 (1.2%) n (%) | TEAE: HLGT: Respiratory disorders NEC: 2 (1.2%) n (%) | TEAE: HLGT: Sleep disorders and disturbances: 0 n (%) | TEAE: HLGT: Spinal cord and nerve root disorders: 2 (1.2%) n (%) | TEAE: HLGT: Urolithiases: 2 (1.2%) n (%) | TEAE: HLGT: Vascular hypertensive disorders: 2 (1.2%) n (%) | TEAE: HLT: Appetite disorders: 1 (0.6%) n (%) | TEAE: HLT: Asthenic conditions: 0 n (%) | TEAE: HLT: Chronic polyneuropathies: 2 (1.2%) n (%) | TEAE: HLT: Coughing and associated symptoms: 0 n (%) | TEAE: HLT: Depressive disorders: 2 (1.2%) n (%) | TEAE: HLT: Digestive enzymes: 2 (1.2%) n (%) | TEAE: HLT: Disturbances in initiating and maintaining sleep: 0 n (%) | TEAE: HLT: Dyspeptic signs and symptoms: 1 (0.6%) n (%) | TEAE: HLT: Elevated triglycerides: 0 n (%) | TEAE: HLT: Flatulence, bloating and distension: 2 (1.2%) n (%) | TEAE: HLT: Gastrointestinal atonic and hypomotility disorders NEC: 1 (0.6%) n (%) | TEAE: HLT: Headaches NEC: 12 (7.4%) n (%) | TEAE: HLT: Influenza viral infections: 6 (3.7%) n (%) | TEAE: HLT: Injection site reactions: 1 (0.6%) n (%) | TEAE: HLT: Inner ear signs and symptoms: 2 (1.2%) n (%) | TEAE: HLT: Intervertebral disc disorders NEC: 2 (1.2%) n (%) | TEAE: HLT: Joint related signs and symptoms: 3 (1.9%) n (%) | TEAE: HLT: Lower respiratory tract and lung infections: 1 (0.6%) n (%) | TEAE: HLT: Lumbar spinal cord and nerve root disorders: 2 (1.2%) n (%) | TEAE: HLT: Musculoskeletal and connective tissue pain and discomfort: 3 (1.9%) n (%) | TEAE: HLT: Nausea and vomiting symptoms: 1 (0.6%) n (%) | TEAE: HLT: Neurological signs and symptoms NEC: 3 (1.9%) n (%) | TEAE: HLT: Oedema NBC: 3 (1.9%) n (%) | TEAE: HLT: Osteoarthropathies: 2 (1.2%) n (%) | TEAE: HLT: Renal lithiasis: 2 (1.2%) n (%) | TEAE: HLT: Skin injuries NEC: 5 (3.1%) n (%) | TEAE: HLT: Supraventricular arrhythmias: 1 (0.6%) n (%) | TEAE: HLT: Vascular hypertensive disorders NEC: 2 (1.2%) n (%) | Treatment emergent SAE: HLGT: Bacterial infectious disorders: 0 n (%) | Treatment emergent SAE: HLGT: Bone and joint injuries: 0 n (%) | Treatment emergent SAE: HLGT: Cardiac and vascular investigations (excl enzyme tests): 1 (0.6%) n (%) | Treatment emergent SAE: HLGT: Cardiac arrhythmias: 1 (0.6%) n (%) | Treatment emergent SAE: HLGT: Coronary artery disorders: 0 n (%) | Treatment emergent SAE: HLGT: Depressed mood disorders and disturbances: 1 (0.6%) n (%) | Treatment emergent SAE: HLGT: Joint disorders: 1 (0.6%) n (%) | Treatment emergent SAE: HLGT: Musculoskeletal and connective tissue deformities (incl intervertebral disc disorders): 0 n (%) | Treatment emergent SAE: HLGT: Musculoskeletal and connective tissue disorders NEC: 0 n (%) | Treatment emergent SAE: HLGT: Neurological disorders NEC: 1 (0.6%) n (%) | Treatment emergent SAE: HLGT: Peripheral neuropathies: 0 n (%) | Treatment emergent SAE: HLGT: Reproductive neoplasms female malignant and unspecified: 0 n (%) | Treatment emergent SAE: HLGT: Spinal cord and nerve root disorders: 0 n (%) | Treatment emergent SAE: HLGT: Urolithiases: 0 n (%) | Treatment emergent SAE: HLT: Bacterial infections NEC: 0 n (%) | Treatment emergent SAE: HLT: Chronic polyneuropathies: 0 n (%) | Treatment emergent SAE: HLT: Depressive disorders: 1 (0.6%) n (%) | Treatment emergent SAE: HLT: ECG investigations: 1 (0.6%) n (%) | Treatment emergent SAE: HLT: Intervertebral disc disorders NEC: 0 n (%) | Treatment emergent SAE: HLT: Ischaemic coronary artery disorders: 0 n (%) | Treatment emergent SAE: HLT: Lumbar spinal cord and nerve root disorders: 0 n (%) | Treatment emergent SAE: HLT: Musculoskeletal and connective tissue pain and discomfort: 0 n (%) | Treatment emergent SAE: HLT: Neurological signs and symptoms NEC: 1 (0.6%) n (%) | Treatment emergent SAE: HLT: Osteoarthropathies: 1 (0.6%) n (%) | Treatment emergent SAE: HLT: Ovarian neoplasms malignant (excl germ cell): 0 n (%) | Treatment emergent SAE: HLT: Rate and rhythm disorders NEC: 0 n (%) | Treatment emergent SAE: HLT: Supraventricular arrhythmias: 1 (0.6%) n (%) | Treatment emergent SAE: HLT: Upper limb fractures and dislocations: 0 n (%) | Treatment emergent SAE: HLT: Urinary tract lithiasis (excl renal): 0 n (%) | Patients with any TEAE leading to permanent treatment discontinuation (listed as insulin glargine): none | Patients with any treatment emergent SAE (listed as insulin glargine): 6 (3.7%) n (%)
